Assay [1] concerns the target T1, Human ASGR1 protein (R&D Systems cat #4394-AS/CF) (human, UniProt P07306 62-291).
T1 construct: Bought protein; also called huASGR1
T1 sequence (looked up): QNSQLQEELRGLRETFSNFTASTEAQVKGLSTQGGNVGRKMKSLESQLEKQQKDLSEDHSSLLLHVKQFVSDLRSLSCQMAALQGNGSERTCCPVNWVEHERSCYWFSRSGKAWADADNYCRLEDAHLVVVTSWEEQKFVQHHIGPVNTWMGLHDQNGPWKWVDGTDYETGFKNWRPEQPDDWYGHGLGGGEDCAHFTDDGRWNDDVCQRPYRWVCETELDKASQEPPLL
Description: SPR (BIAcore 3000), human ASGR1 immobilized, pH 7.4 with 2 mM Ca2+. How it is done:
(§1) The binding of anti-ASGR1 antibodies binding ASGR1 in a pH/Ca2+ dependent or independent manner was assessed by BIAcore. Equilibrium binding affinities of the interaction between (i) mouse or human ASGR1 and anti-ASGR1 antibodies; and (ii) mouse or human ASGR1 and bispecific scFv molecules of the present inventions were determined using BIAcore 3000. Mouse and human ASGR1 proteins were obtained from R&D-systems (cat #2755-AS/CF and 4394-AS/CF, respectively) and immobilized on CM5 chips using amine coupling chemistry to a density of ˜1500 RU. On each CM5 chip a reference flow cell is used which was coupled with coupling buffer only. Antibodies were injected over immobilized ASGR1 at a concentration range of 1000 nM-0.2 nM, with a two-fold serial dilution. To determine pH/Ca-sensitive binding, runs were performed using phosphate buffered saline (PBS) with 0.01% (v/v) Tween20 and 0.05% azide with either pH 7.4/2 mM calcium chloride or pH 6.0/2 μM calcium chloride. The chip was regenerated using 0.15 M NaCl, 0.1 M glycine pH 1.5 buffer between each injection cycles. Equilibrium dissociation constants were determined using 1:1 interaction model using BIAevaluation.
For orientation: Surface plasmon resonance follows binding to a sensor surface in real time, without labels.

For assay [2], the target named is T2, Mouse ASGR1 protein (R&D Systems cat #2755-AS/CF) (mouse, UniProt P34927 61-284, limits assumed).
T2 construct: Bought protein; also called muASGR1
T2 sequence (looked up): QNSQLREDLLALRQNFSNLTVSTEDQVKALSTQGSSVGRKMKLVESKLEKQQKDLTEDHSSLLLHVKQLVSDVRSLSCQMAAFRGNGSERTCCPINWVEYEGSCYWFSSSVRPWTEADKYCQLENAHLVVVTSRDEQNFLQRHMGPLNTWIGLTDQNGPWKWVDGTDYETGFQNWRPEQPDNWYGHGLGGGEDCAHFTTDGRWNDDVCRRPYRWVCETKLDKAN
The experiment in a line: SPR (BIAcore 3000), mouse ASGR1 immobilized, pH 7.4 with 2 mM Ca2+. How it is done: as §1

The target in assay [3] is T2, Mouse ASGR1 protein (R&D Systems cat …). The experiment in a line: SPR (BIAcore 3000), mouse ASGR1 immobilized, pH 7.4 with 2 mM Ca2+; pH 7.4 with 2 mM Ca2+; Table 3 experiment (comparison with bispecific scFv). How it is done: as §1
Assay [4] shares this target. The experiment in a line: SPR (BIAcore 3000), mouse ASGR1 immobilized, antibody analyte, pH 7.4, 2 mM CaCl2; pH 7.4, 2 mM CaCl2; Table 1 experiment.
Assay [5] has the same target. The experiment in a line: SPR (BIAcore 3000), mouse ASGR1 immobilized, antibody analyte, pH 7.4, 2 mM CaCl2. How it is done:
(§2) Antibodies binding to ASGR1 in a pH/Ca2+-dependent manner were screened by employing surface plasmon resonance. Antibodies were screened either at pH 7.4 with 2 mM CaCl2 or at pH 6.0 with 2 μM CaCl2 to analyze the binding to ASGR1. KD values were determined by immobilizing receptor on the chip and antibodies as analytes.
(§3) Equilibrium binding affinities of the interaction between mouse ASGR1 and anti-ASGR1 antibodies were determined using BIAcore 3000. Mouse ASGR1 protein was obtained from R&D-systems (cat #2755-AS/CF) and immobilized on CM5 chips using amine coupling chemistry to a density of ˜1500 RU. On each CM5 chip a reference flow cell is used which was coupled with coupling buffer only. Antibodies were injected over immobilized ASGR1 at a concentration range of 1000 nM-0.2 nM, with a two-fold serial dilution. To determine pH/Ca-sensitive binding, runs were performed using phosphate buffered saline (PBS) with 0.01% (v/v) Tween20 and 0.05% azide with either pH 7.4/2 mM calcium chloride or pH 6.0/2 μM calcium chloride. The chip was regenerated using 0.15 M NaCl, 0.1 M glycine pH 1.5 buffer between each injection cycles. Equilibrium dissociation constants were determined using 1:1 interaction model using BIAevaluation.

Assay [6] shares this target. The experiment in a line: SPR (BIAcore 3000), mouse ASGR1 immobilized, antibody analyte, pH 6, 2 uM CaCl2. How it is done:
as §2, §3

B1: Catabolic bispecific scFv molecule (binds ASGR1 in a catabolic manner and Ig in a non-catabolic manner) (bispecific antibody)
scFv: ELQLQQSGAELVRPGASVKLSCTTSGFNVKDTYIHWVRQRPEQGLEWIGRIDPANGNTKYDPKFQDRATITTDTSSITAYLQLSSLTSEDTAVYYCARNYGSNYDPMDYWGQGTSLTVSSGGGGSGGGGSGGGGSDILLTQSPAILSVSPGERVSFSCRASQNIDTNIHWYQRRTNDSPRLLIKYASESISGIPSRFSGSGSGTDFTLSINSVESEDIADYYCQQSDTWPWTFGGGTKLEIKRSGGGGSQVQLVESGGGVVQPGRSLRLSCAASGFTFSSYGMHWVRQAPGKGLEWVAVIWYDGSNKYYADSVKGRFTISRDNSKNTLYLQMNSLRAEDTAVYYCARDSSPYGMDVWGQGTTVTVSSGGGGSGGGGSGGGGSDIQMTQSPSSVSASVGDRVTITCRASQGISSWLAWYQQKPGKAPKLLIYGASSLQSGVPSRFSASGSGTDFTLTISSLQPEDFATYYCQQSDSFPRTFGQGTKVEIKRHHHHHH
notes: Single chain: anti-IgG scFv, SG4S linker, catabolic anti-ASGR1 scFv, C-terminal 6xHis; also called CAT bispecific scFv molecule; CAT-bispecific scFv molecule
On to B1, for which the figures for the Kd in assay [1] and in assay [2] were 0.023 µM and 0.0783 µM, respectively.

B2: Catabolic anti-ASGR1 antibody (antibody, human IgG1, kappa, N297G, V domains shown)
VH: QVQLVESGGGVVQPGRSLRLSCAASGFTFSSYGMHWVRQAPGKGLEWVAVIWYDGSNKYYADSVKGRFTISRDNSKNTLYLQMNSLRAEDTAVYYCARDSSPYGMDVWGQGTTVTVSS
VL: DIQMTQSPSSVSASVGDRVTITCRASQGISSWLAWYQQKPGKAPKLLIYGASSLQSGVPSRFSASGSGTDFTLTISSLQPEDFATYYCQQSDSFPRTFGQGTKVEIKR
notes: also called CAT-WT; CAT mAb
Regarding B2, the Kd (as a rule, the constant that tells how readily two partners part at equilibrium) was 0.0121 µM in assay [3], 0.004 µM in assay [1] and 0.02 µM in assay [4].

B3: Non-catabolic anti-ASGR1 antibody (antibody, human IgG1, kappa, N297G, V domains shown)
VH: EVQLVESGGGLVQPGRSLKLSCAASGFTFSDYNMAWVRQAPKKGLEWVATIIYDGGSTYYRHSVKGRFTISRDNAKSTHSLQMDSLRSEDTATYYCARQTYFGSRDYFDYWGQGVMVTVSS
VL: DIQMTQSPTSLSASLGETVSIECLTSEDIYNNLAWYQQKPGKSPQLLISYASNFQDGVPSRFSGSGSGTQYSLKINSLESEDAATYFCLQDSEYPPTFGGGTKLELKR
notes: also called Non-CAT-WT; non-CAT mAb
As to B3, the Kd in assay [5] came to 0.006 µM; in assay [6], 0.0055 µM.

For the origin of these results see patent publication US20260042865A1 (Amgen, published 2026).
